Publication PMC4033627

Legend:
[1] = molecular target: Sst2^catD354A (Asp354Ala mutant of the catalytic domain of Sst2) (S. pombe) (UniProt Q9P371); assay: ITC
[2] = molecular target: catalytic domain of Sst2 (residues 245–435), Sst2^cat (S. pombe) (UniProt Q9P371); assay: ITC
Sequence of catalytic domain of Sst2 (residues 245–435), Sst2^cat (S. pombe) (Q9P371 245-435): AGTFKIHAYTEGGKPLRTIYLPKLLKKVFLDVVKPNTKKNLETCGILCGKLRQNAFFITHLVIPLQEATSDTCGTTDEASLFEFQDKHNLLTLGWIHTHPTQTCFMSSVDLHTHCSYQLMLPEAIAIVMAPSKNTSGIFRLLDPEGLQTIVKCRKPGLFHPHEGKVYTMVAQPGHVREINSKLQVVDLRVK

Sequence of Sst2^catD354A (Asp354Ala mutant of the catalytic domain of Sst2) (S. pombe) (Q9P371 245-435 D354A): as the sequence (Q9P371 245-435) above, with D110A counted along it

Kd [1] | dH [1] | dH [2] | Substance
1100 nM | 11.8 kcal/mol | – | Lys63-linked diubiquitin, enzymatically synthesized from Lys63Arg and Asp77 ubiquitin mutants
– | – | 11.9 kcal/mol | ubiquitin (from a pRSETA plasmid, for isothermal titration calorimetry) (from UniProt P0CG48 1-76) (natural protein)
